The values below come from PMC11191641.

The experiment concerns the target His-tagged ferritin-based nanoparticle (FNP): Helicobacter pylori ferritin with N-terminal domain B (S. aureus | Helicobacter pylori). Kind of experiment: BLI. Conditions: Fc fusion.

For the substance “NiV-B-G-Fc: Nipah virus Bangladesh attachment glycoprotein G (residues 176-602) fused with a C-terminal human IgG1 Fc (from UniProt P01857)”, the Kd – broadly, the constant that tells how readily two partners part at equilibrium – worked out at 9.46 nM.
